From patent US20220315554A1, “COMPOUNDS COMPRISING A […] LIGAND AND USE THEREOF” (priority 2019, published 2022)
Bridge positions count the residues as written; N and C are the ends. * marks the point of attachment. tMeBn(DOTA-AET) = Cys-Cys bridge (thioethers) carrying DOTA-AET; tMeBn(DOTA-PP) = Cys-Cys bridge (thioethers) carrying DOTA-PP; Hexanoyl = CCCCCC(=O)*

T1: M2 (h) (human (printed (h))), P08172
T1 chain: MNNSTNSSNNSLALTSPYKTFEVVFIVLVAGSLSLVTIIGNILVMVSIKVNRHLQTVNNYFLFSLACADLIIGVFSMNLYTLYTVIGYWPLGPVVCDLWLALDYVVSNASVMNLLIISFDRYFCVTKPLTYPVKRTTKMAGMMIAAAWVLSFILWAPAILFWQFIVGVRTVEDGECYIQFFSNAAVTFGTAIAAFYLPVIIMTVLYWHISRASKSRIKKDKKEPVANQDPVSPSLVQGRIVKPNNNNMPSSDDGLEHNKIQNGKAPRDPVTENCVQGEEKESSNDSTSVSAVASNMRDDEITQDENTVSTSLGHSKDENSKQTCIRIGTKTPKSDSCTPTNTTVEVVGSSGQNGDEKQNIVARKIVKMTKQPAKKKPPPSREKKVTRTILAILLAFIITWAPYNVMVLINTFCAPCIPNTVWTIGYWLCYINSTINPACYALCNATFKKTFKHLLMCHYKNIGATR

T2: 5-HT1A (h) (human (printed (h))), P08908
T2 chain: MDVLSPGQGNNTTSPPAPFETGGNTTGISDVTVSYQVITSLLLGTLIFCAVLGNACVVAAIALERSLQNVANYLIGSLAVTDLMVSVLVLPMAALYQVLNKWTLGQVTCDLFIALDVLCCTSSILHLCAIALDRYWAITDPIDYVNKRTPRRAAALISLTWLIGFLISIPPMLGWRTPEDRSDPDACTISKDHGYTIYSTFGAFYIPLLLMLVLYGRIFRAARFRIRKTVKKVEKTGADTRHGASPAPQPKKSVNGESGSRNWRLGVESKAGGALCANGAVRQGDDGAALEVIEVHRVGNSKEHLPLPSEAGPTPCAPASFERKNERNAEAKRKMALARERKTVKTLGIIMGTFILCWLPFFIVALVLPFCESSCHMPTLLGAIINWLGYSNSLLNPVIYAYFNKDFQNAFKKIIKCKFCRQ

T3: D2S (h) (human (printed (h))), P14416
T3 chain: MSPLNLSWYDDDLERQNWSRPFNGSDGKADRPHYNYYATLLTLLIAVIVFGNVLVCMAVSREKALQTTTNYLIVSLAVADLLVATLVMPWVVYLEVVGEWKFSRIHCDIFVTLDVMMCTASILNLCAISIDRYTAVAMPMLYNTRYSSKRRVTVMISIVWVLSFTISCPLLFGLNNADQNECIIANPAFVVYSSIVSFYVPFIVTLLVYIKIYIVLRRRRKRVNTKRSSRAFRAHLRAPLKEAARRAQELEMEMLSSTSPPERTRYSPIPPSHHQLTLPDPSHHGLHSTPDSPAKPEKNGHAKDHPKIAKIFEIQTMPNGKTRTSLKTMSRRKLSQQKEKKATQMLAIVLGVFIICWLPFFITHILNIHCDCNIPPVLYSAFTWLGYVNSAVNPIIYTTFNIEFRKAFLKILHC

T4: GR (h) (human (printed (h))), P04150
T4 chain: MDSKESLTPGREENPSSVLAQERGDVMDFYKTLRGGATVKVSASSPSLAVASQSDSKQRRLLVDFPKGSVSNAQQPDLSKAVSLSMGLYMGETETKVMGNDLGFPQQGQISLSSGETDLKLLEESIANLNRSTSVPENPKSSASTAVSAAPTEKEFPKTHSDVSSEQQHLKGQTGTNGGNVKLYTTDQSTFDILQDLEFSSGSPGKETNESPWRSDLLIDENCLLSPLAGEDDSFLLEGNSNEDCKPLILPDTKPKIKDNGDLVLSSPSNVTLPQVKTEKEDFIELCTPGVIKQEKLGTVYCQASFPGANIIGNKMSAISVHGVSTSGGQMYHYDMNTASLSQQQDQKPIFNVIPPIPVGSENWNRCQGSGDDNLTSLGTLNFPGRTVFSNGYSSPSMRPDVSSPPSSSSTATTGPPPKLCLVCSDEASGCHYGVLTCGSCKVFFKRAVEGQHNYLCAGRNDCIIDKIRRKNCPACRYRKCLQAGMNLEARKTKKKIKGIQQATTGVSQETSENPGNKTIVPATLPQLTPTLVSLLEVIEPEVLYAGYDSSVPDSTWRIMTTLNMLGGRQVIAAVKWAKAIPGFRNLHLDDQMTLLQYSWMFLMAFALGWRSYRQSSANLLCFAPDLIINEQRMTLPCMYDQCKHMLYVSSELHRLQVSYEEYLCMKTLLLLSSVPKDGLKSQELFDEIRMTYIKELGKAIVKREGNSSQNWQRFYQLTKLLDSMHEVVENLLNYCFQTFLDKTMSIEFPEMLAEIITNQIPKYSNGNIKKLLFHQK

T5: alpha 2A (h) (human (printed (h))), P08913
T5 chain: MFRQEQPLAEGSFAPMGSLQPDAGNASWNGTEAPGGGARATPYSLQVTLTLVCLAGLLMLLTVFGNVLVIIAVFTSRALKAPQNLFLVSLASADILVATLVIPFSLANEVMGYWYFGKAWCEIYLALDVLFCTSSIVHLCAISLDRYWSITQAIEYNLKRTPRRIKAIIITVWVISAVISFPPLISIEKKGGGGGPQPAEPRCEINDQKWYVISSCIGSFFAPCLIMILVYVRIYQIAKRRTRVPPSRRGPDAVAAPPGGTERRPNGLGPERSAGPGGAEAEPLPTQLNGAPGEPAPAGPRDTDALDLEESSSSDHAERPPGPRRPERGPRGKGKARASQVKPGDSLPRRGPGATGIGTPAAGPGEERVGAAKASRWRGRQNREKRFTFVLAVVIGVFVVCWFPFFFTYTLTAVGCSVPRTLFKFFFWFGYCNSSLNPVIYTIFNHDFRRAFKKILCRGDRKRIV


What was measured:
Test in all cases: radioligand displacement, 10 uM compound
Settings in all cases: remark: other sources report otherwise
[1] = target: T1, M2 (h) (human (printed (h))), P08172
[2] = target: T2, 5-HT1A (h) (human (printed (h))), P08908
[3] = target: T3, D2S (h) (human (printed (h))), P14416
[4] = target: beta 1 (h) (human (printed (h))), P08588
[5] = target: H2 (h) (human (printed (h))), P25021
H2 (h) (human (printed (h))), P25021, sequence (P25021 whole entry): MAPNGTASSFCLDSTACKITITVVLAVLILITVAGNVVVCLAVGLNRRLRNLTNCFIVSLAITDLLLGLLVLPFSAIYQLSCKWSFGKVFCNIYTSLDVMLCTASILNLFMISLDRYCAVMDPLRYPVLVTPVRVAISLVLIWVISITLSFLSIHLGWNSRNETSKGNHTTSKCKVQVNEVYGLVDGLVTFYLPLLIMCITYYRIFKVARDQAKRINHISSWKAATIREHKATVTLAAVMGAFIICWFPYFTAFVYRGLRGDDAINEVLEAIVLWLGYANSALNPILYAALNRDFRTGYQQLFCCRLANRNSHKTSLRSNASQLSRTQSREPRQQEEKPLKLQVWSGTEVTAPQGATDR

[6] = target: T4, GR (h) (human (printed (h))), P04150
[7] = target: 5-HT2A (h) (human (printed (h))), P28223
5-HT2A (h) (human (printed (h))), P28223, sequence (P28223 whole entry): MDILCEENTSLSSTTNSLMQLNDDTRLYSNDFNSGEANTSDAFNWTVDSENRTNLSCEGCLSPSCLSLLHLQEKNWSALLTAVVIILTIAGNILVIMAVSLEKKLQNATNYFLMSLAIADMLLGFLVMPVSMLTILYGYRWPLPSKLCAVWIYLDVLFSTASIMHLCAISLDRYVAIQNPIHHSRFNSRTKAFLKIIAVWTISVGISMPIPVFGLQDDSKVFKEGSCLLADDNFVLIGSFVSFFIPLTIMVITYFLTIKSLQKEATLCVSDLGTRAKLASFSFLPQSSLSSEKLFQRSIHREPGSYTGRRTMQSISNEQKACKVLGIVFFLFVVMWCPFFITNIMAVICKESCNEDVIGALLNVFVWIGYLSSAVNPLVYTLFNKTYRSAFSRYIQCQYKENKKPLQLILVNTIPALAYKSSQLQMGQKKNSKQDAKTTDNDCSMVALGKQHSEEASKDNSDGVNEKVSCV

[8] = target: 5-HT1B (h) (human (printed (h))), P28222
5-HT1B (h) (human (printed (h))), P28222, sequence (P28222 whole entry): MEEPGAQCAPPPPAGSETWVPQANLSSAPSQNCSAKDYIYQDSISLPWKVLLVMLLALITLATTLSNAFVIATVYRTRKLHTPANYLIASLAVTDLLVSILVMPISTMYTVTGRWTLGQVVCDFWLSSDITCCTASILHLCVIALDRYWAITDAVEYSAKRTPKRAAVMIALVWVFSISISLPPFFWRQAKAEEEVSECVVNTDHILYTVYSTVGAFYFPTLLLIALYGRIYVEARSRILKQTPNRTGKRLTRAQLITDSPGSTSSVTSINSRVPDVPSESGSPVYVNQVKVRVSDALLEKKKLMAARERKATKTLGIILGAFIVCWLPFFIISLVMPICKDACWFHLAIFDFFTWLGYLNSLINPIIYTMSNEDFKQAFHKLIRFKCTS

[9] = target: T5, alpha 2A (h) (human (printed (h))), …

% Inhibition of Specific Binding [1] | % Inhibition of Specific Binding [2] | % Inhibition of Specific Binding [3] | % Inhibition of Specific Binding [4] | % Inhibition of Specific Binding [5] | % Inhibition of Specific Binding [6] | % Inhibition of Specific Binding [7] | % Inhibition of Specific Binding [8] | % Inhibition of Specific Binding [9] | Binder
7% | -5% | -7% | -13% | -16% | 0% | 4% | 8% | 2% | Hexanoyl-CPPTQFC-OH (linker 1-7 via tMeBn(DOTA-AET)) [Hex-[Cys(tMeBn(DOTA-AET))-Pro-Pro-Thr-Gln-Phe-Cys]-OH (3BP-3554)]
-4% | -3% | 15% | 4% | -5% | -2% | -2% | -11% | -9% | Hexanoyl-CPPTQFCD-NH2 (linker 1-7 via tMeBn(DOTA-PP)) [Hex-[Cys(tMeBn(DOTA-PP))-Pro-Pro-Thr-Gln-Phe-Cys]-Asp-NH2 (3BP-3407)]
